The values that follow are results of earlier work, collected in US20060270591A1, “Androgen receptor coregulators” (priority 2002, published 2006).

This series addresses T1, PR (Homo sapiens, UniProt P06401).
T1 construct: expressed in transfected cells; host or cells: DU145, PC-3
T1 sequence (P06401 1-933): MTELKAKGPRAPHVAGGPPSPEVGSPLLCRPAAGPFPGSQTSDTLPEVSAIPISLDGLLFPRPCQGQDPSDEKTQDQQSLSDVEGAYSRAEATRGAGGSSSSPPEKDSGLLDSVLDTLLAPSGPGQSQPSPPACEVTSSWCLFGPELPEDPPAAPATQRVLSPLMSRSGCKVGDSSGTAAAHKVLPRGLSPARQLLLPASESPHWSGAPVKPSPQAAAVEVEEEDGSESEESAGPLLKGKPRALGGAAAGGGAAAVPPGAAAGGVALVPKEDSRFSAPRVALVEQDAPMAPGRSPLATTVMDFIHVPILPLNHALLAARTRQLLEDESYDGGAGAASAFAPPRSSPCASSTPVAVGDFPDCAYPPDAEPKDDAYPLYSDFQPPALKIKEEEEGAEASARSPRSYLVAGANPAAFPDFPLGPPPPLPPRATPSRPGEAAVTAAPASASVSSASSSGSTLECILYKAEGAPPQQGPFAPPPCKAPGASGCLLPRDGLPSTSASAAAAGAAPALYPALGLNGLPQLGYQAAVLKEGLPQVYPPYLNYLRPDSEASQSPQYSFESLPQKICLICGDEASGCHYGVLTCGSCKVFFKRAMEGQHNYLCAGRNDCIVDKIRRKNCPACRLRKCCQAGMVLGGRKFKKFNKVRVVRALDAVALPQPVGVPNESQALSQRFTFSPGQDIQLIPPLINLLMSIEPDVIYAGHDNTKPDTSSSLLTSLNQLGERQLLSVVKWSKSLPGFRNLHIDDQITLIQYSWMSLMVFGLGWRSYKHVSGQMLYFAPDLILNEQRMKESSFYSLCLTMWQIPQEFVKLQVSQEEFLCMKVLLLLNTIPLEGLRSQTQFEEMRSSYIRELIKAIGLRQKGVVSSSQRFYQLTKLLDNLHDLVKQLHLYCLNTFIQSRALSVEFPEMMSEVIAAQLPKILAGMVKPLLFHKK
Conditions: previous studies; cited from earlier work.

B1: ARA54: 54 kDa protein that interacts with AR in an androgen-dependent manner; AR coactivator (protein)
chain: MSSEDREAQEDELLALASIYDGDEFRKAESVQGGETRIYLDLPQNFKIFVSGNSNECLQNSGFEYTICFLPPLVLNFELPPDYPSSSPPSFTLSGKWLSPTQLSALCKHLDNLWEEHRGSVVLFAWMQFLKEETLAYLNIVSPFELKIGSQKKVQRRTAQASPNTELDFGGAAGSDVDQEEIVDERAVQDVESLSNLIQEILDFDQAQQIKCFNSKLFLCSICFCEKLGSECMYFLECRHVYCKACLKDYFEIQIRDGQVQCLNCPEPKCPSVATPGQVKELVEAELFARYDRLLLQSSLDLMADVVYCPRPCCQLPVMQEPGCTMGICSSCNFAFCTLCRLTYHGVSPCKVTAEKLMDLRNEYLQADEANKRLLDQRYGKRVIQKALEEMESKEWLEKNSKSCPCCGTPIEKLDGCNKMTCTGCMQYFCWICMGSLSRANPYKHFNDPGSPCFNRLFYAVDVDDDIWEDEVED
On to B1, for which the “enhancement of the transcription activity of PR” value is on record as “up to 4 fold”.
